Molecular target: recombinant extracellular domain (ECD) of human IL1RAP (S21-E359) (Homo sapiens, UniProt Q9NPH3)
Experiment: SPR

Chain of recombinant extracellular domain (ECD) of human IL1RAP (S21-E359) (Q9NPH3 21-359): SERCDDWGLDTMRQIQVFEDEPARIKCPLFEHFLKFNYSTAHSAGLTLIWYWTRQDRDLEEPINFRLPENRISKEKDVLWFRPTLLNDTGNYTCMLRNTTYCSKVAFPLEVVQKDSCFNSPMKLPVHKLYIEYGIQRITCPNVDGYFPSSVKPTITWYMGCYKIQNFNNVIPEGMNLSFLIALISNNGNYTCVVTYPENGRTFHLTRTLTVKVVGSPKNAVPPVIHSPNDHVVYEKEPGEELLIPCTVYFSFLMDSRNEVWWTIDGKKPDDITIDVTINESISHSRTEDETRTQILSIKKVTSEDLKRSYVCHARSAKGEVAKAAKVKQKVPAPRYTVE

B1: anti-IL1RAP-24 Fab (Fab, V domains shown)
VH: QVQLQQSGPELVRPGVSVKISCKGSGYTFTDYAMHWVKQSHGKGLEWIGIISTYSGNTKFHQKFKGKATMTVDKSSSTAYMELARLTSEDSAIYYCARQGTWYFDVWGAGTTVTVSS
VL: QIVLTQSPAIMSASPGEKVTMTCSASSTIIYIHWYQQKPGTSPKGWIYDTSKLASGVPARFSGSGSGTSYSLTISSMEAEDAATYYCHQRTSYPWTFGGGTKLEIK
Kd: 2.2 nM

Reference: article PMC11325815 (Journal of Hematology & Oncology, 2024)
